The target of assay [1] is 67 kDa laminin receptor protein (human, UniProt P08865 2-295). As to the kind of experiment: cell-based or functional assay.
The target in a further assay is T1, 67LR 161-170 peptide.
T1 construct: Synthetic peptide coated on the ELISA plate at 10 ug/mL; also called ESM peptide; EGCG sensing motif (ESM)
T1 peptide: IPCNNKGAHS
As to the kind of experiment: ELISA of hybridoma culture supernatant on coated 67LR 161-170 peptide. In general terms: ELISA stands for enzyme-linked immunosorbent assay.

The target in assay [2] is T2, Control peptide.
T2 construct: Coated on the ELISA plate at 10 ug/mL
T2 peptide: MNAANVGWNGSTFA
As to the kind of experiment: ELISA, peptide coated at 10 ug/mL, HRP anti-mouse IgG, absorbance at 405 nm.

The target in assay [3] is T2, Control peptide. As to the kind of experiment: ELISA, peptide coated at 10 ug/mL, done as for ESM-8.

B1: ESM-8 antibody (ESM-8 monoclonal antibody) (antibody, V domains shown)
VH: QVQLKQSGPGLVQPSQSLSITCTVSGFSLTTYGVHWVRQSPGKGLEWLGVIWSGGNTDYNAAFMSRLSISKDNSKSQVFFKMNSLRTTDTAIYYCARNSLLLPFDVWGAGTTVTVSS
VL: DVVMTQTPLSLPVSLGDQASISCRSSQSLVHSNGYTYLHWYLQKPGQSPKLLIYKVSNRFSGVPDRFSGSASGTDFTLKISRVEAEDLGVYFCSQSTHVPWTFGGGTKLEIK
notes: it was detected with anti-mouse IgG and compared with Control mIgG; also called monoclonal antibody ESM-8; EMS-8 antibody
With B1, the “acidic sphingomyelinase activity in HL60 cells (TLC of BODIPY-C12-sphingomyelin), relative to Control mIgG” value in assay [1] is approximately 3 times. The figures for the binding result with 67LR 161-170 peptide and with Control peptide [2] were “binds” and “no binding”, respectively.

B2: ESM-16 antibody (ESM-16 monoclonal antibody) (antibody, V domains shown)
VH: EVMLVESGGGLVKPGGSLKLSCAASGFTFSSYAMSWVRQTPEKRLEWVATISSGGSYTYYPDSVKGRFTISRDNAKNTLYLQMSSLRSEDTAMYYCARNWDLDYWGQGTTLTVSS
VL: DIVMTQSPATLSVTPGDRVSLSCRASQSISDYLHWYQQKSHESPRLLIKYASQSISGIPSRFSGSGSGSDFTLSINSVEPEDVGVYYCQNGHSFPYTFGGGTKLEIK
notes: Mouse hybridoma antibody; in flow cytometry it was detected with goat anti-mouse IgM and compared with Isotype Control mIgM, which points to IgM; also called monoclonal antibody ESM-16; EMS-16 antibody
B2: the binding result with Control peptide [3] is recorded as “no binding”; with 67LR 161-170 peptide, “binds”.

Source of the values: patent publication WO2014208760A1 (dated 2014).
